14 molecules from PMC12416549 (2024) can be followed below.

Sequences and labels used below:
B1: V55T (designed binder)
chain: MTLQELLREEALRRAEAEAFRYALELLAEKFPEQKEYLLDLAEEIESQIRSLSGTDVEDVRKFLDKEWAWVKELLAEHPAELAEVEAARAARLAELRAEVEAKVAA
B2: L41D (designed binder)
chain: MTLQELLREEALRRAEAEAFRYALELLAEKFPEQKEYLLDDAEEIESQIRSLSGVDVEDVRKFLDKEWAWVKELLAEHPAELAEVEAARAARLAELRAEVEAKVAA
B3: R89F (designed binder)
chain: MTLQELLREEALRRAEAEAFRYALELLAEKFPEQKEYLLDLAEEIESQIRSLSGVDVEDVRKFLDKEWAWVKELLAEHPAELAEVEAAFAARLAELRAEVEAKVAA
B4: E36F (designed binder)
chain: MTLQELLREEALRRAEAEAFRYALELLAEKFPEQKFYLLDLAEEIESQIRSLSGVDVEDVRKFLDKEWAWVKELLAEHPAELAEVEAARAARLAELRAEVEAKVAA
B5: V60Q (designed binder)
chain: MTLQELLREEALRRAEAEAFRYALELLAEKFPEQKEYLLDLAEEIESQIRSLSGVDVEDQRKFLDKEWAWVKELLAEHPAELAEVEAARAARLAELRAEVEAKVAA
B6: E5N (designed binder)
chain: MTLQNLLREEALRRAEAEAFRYALELLAEKFPEQKEYLLDLAEEIESQIRSLSGVDVEDVRKFLDKEWAWVKELLAEHPAELAEVEAARAARLAELRAEVEAKVAA
B7: E73Q (designed binder)
chain: MTLQELLREEALRRAEAEAFRYALELLAEKFPEQKEYLLDLAEEIESQIRSLSGVDVEDVRKFLDKEWAWVKQLLAEHPAELAEVEAARAARLAELRAEVEAKVAA
B8: Y22V (designed binder)
chain: MTLQELLREEALRRAEAEAFRVALELLAEKFPEQKEYLLDLAEEIESQIRSLSGVDVEDVRKFLDKEWAWVKELLAEHPAELAEVEAARAARLAELRAEVEAKVAA
B9: R92N (designed binder)
chain: MTLQELLREEALRRAEAEAFRYALELLAEKFPEQKEYLLDLAEEIESQIRSLSGVDVEDVRKFLDKEWAWVKELLAEHPAELAEVEAARAANLAELRAEVEAKVAA
B10: A23C (designed binder)
chain: MTLQELLREEALRRAEAEAFRYCLELLAEKFPEQKEYLLDLAEEIESQIRSLSGVDVEDVRKFLDKEWAWVKELLAEHPAELAEVEAARAARLAELRAEVEAKVAA
B11: K30D (designed binder)
chain: MTLQELLREEALRRAEAEAFRYALELLAEDFPEQKEYLLDLAEEIESQIRSLSGVDVEDVRKFLDKEWAWVKELLAEHPAELAEVEAARAARLAELRAEVEAKVAA
B12: D56G (designed binder)
chain: MTLQELLREEALRRAEAEAFRYALELLAEKFPEQKEYLLDLAEEIESQIRSLSGVGVEDVRKFLDKEWAWVKELLAEHPAELAEVEAARAARLAELRAEVEAKVAA
B13: P32E (designed binder)
chain: MTLQELLREEALRRAEAEAFRYALELLAEKFEEQKEYLLDLAEEIESQIRSLSGVDVEDVRKFLDKEWAWVKELLAEHPAELAEVEAARAARLAELRAEVEAKVAA
B14: L52H (designed binder)
chain: MTLQELLREEALRRAEAEAFRYALELLAEKFPEQKEYLLDLAEEIESQIRSHSGVDVEDVRKFLDKEWAWVKELLAEHPAELAEVEAARAARLAELRAEVEAKVAA

In this test the target is T1, TNFR1 (Homo sapiens, UniProt P19438).
T1 chain: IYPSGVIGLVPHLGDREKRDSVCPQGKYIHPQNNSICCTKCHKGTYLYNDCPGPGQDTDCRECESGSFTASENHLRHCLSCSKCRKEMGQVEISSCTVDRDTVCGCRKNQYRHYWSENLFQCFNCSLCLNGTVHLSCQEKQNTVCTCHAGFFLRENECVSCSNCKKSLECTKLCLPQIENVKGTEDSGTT
Put plainly: yeast display SC50.
Consider B1, for which the “apparent Kd (screen)” value was 0.718 nM.

Regarding B2, the “apparent Kd (screen)” value worked out at 1.27 nM.

Take B3: the “apparent Kd (screen)” value is 1.05 nM.

As for B4, the “apparent Kd (screen)” value came out at 0.539 nM.

On to B5, for which the “apparent Kd (screen)” value came to 0.718 nM.

Turning to B6, the “apparent Kd (screen)” value was found to be 0.446 nM.

As for B7, the “apparent Kd (screen)” value came to 0.446 nM.

As to B8, the “apparent Kd (screen)” value was 0.79 nM.

For the molecule B9, the “apparent Kd (screen)” value is 0.718 nM.

On to B10, for which the “apparent Kd (screen)” value is 0.446 nM.

Turning to B11, the “apparent Kd (screen)” value is 1.27 nM.

B12: the “apparent Kd (screen)” value was found to be 0.956 nM.

As to B13, the “apparent Kd (screen)” value was found to be 0.49 nM.

For B14, the “apparent Kd (screen)” value was 6.43 nM.
